Values of other authors as cited in publication PMC4859759.

Target: VEGFR2 IgG domains 3-5 (Homo sapiens) (UniProt P35968)
Sequence (P35968 224-548): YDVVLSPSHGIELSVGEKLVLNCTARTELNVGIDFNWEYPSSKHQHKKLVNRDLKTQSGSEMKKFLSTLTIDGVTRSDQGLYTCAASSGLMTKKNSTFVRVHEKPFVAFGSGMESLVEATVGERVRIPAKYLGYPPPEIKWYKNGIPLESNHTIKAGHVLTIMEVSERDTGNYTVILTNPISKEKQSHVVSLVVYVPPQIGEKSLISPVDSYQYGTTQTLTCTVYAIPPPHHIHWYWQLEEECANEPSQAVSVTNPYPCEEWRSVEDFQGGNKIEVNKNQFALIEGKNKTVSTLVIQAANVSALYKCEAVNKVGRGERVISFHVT

Sequence of endorepellin (perlecan) LG1/2 (P98160 3687-4103): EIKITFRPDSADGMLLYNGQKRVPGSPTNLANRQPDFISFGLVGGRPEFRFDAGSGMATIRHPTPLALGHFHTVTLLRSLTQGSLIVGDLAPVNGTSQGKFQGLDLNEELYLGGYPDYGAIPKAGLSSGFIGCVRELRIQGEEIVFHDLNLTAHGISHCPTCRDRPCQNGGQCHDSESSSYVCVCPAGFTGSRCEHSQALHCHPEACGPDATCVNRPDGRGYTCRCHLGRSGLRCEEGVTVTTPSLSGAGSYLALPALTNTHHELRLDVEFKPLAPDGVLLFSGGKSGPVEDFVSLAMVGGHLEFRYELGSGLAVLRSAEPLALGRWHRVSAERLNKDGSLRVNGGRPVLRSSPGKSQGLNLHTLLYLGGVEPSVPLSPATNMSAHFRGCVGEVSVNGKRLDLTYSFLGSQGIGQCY

Kd: 2.8 nM
Substance: endorepellin (perlecan) LG1/2 (from UniProt P98160)
